How the values were obtained:
[1] = target: FCPII-S, trimeric fucoxanthin chlorophyll a/c protein antenna of PSII (Thalassiosira pseudonana (endogenous)); assay: cryo-EM structure; cryo-electron tomography of unstacked thylakoid membrane vesicles with sub-volume averaging (EMAN2); complexes in situ in the membrane; 578 PSII and 374 PSI sub-volumes; resolution 4.2 nm (PSII) and 3.3 nm (PSI); densities assigned by rigid-body fitting of structures of other species
[2] = target: PSII core complex of Thalassiosira pseudonana (dimeric core, C2) (Thalassiosira pseudonana (endogenous)) (UniProt A0T0N4); assay: as above

stoichiometry N [1]	stoichiometry N [2]	Substance
3	2	FCPII-S, trimeric fucoxanthin chlorophyll a/c protein antenna of PSII (complex)
–	2	PSII core complex of Thalassiosira pseudonana (dimeric core, C2) (from UniProt A0T0N4 1-38)

From PMC8331139
